Data published in publication PMC5811025.

Assays:
[1] = target: PrxQ:C54S (Corynebacterium glutamicum); assay: mixed-disulfide heterodimer formation on non-reducing SDS-PAGE; 20 μM PrxQ variant and 15 μM Trx (WT or variant) in 30 mM Tris-HCl pH 8.0, 1 mM EDTA, room temperature 15 min, then 50 μM H2O2 for 30 min; 15% non-reducing SDS-PAGE
[2] = target: tag-free recombinant native peroxiredoxin Q (PrxQ) from Corynebacterium glutamicum (Corynebacterium glutamicum)

Substance | stoichiometry N [1] | also measured
His6-Trx1:C35S (natural protein) | 1 | 
His6-Trx2:C33S (natural protein) | 1 | 
Trx1 WT (wild type) (natural protein) |  | Km for Trx1 of the peroxidase activity of PrxQ with CHP (NADPH-coupled assay, Trx1/TrxR system, 0-120 μM Trx, 1 μM PrxQ) [2]: 4.41 µM
Trx2 WT (wild type) (natural protein) |  | Km for Trx2 of the peroxidase activity of PrxQ with CHP (NADPH-coupled assay, Trx2/TrxR system, 0-120 μM Trx, 1 μM PrxQ) [2]: 5.43 µM
